Earlier results in patent US11937625B2, “Oral administration formulation of blueberry extract as a coadjuvant for preserving the health of human precorneal film” (CENTRO DE RETINA MEDICA Y QUIRURGICA, S.C., priority 2017, dated 2024).

B1: lactoferrin (protein, UniProt P02788 20-710, looked up)
Lactotransferrin: GRRRSVQWCAVSQPEATKCFQWQRNMRKVRGPPVSCIKRDSPIQCIQAIAENRADAVTLDGGFIYEAGLAPYKLRPVAAEVYGTERQPRTHYYAVAVVKKGGSFQLNELQGLKSCHTGLRRTAGWNVPIGTLRPFLNWTGPPEPIEAAVARFFSASCVPGADKGQFPNLCRLCAGTGENKCAFSSQEPYFSYSGAFKCLRDGAGDVAFIRESTVFEDLSDEAERDEYELLCPDNTRKPVDKFKDCHLARVPSHAVVARSVNGKEDAIWNLLRQAQEKFGKDKSPKFQLFGSPSGQKDLLFKDSAIGFSRVPPRIDSGLYLGSGYFTAIQNLRKSEEEVAARRARVVWCAVGEQELRKCNQWSGLSEGSVTCSSASTTEDCIALVLKGEADAMSLDGGYVYTAGKCGLVPVLAENYKSQQSSDPDPNCVDRPVEGYLAVAVVRRSDTSLTWNSVKGKKSCHTAVDRTAGWNIPMGLLFNQTGSCKFDEYFSQSCAPGSDPRSNLCALCIGDEQGENKCVPNSNERYYGYTGAFRCLAENAGDVAFVKDVTVLQNTDGNNNEAWAKDLKLADFALLCLDGKRKPVTEARSCHLAMAPNHAVVSRMDKVERLKQVLLHQQAKFGRNGSDCPDKFCLFQSETKNLLFNDNTECLARLHGKTTYEKYLGPQYVAGITNLKKCSTSPLLEACEFLRK
B2: mono-PEGylated lactoferrin: lactoferrin with covalent attachment of polyethylene glycol (PEG), synthesized by Nojima et al (2008) (conjugate, UniProt P02788 20-710, looked up)
Lactotransferrin: B1 Lactotransferrin
modifications: mono-PEGylated

Assays:
[1] = day 60; oral supplement; post-cataract surgery patients; control group 7.86 (±0.86) seconds
pepsin = conditions: in mice; Nojima et al (2008)

Molecule	fluorescein break-up time [1]	resistance to pepsin proteolysis (pepsin)
B1	13.9 (±0.99) seconds	
B2		greater resistance
